Test results reported in US20160333113A1 (NATIONAL CANCER CENTER, published 2016).

Assays:
[1] = target: T1, human tissue factor (hTF), purified, construct not stated (human, UniProt P13726 33-251, limits assumed); experiment: SPR, Biacore 2000, antibody immobilized on CM5 chip, purified hTF in flow
T1 construct: The SPR and the chimeric-antibody ELISA say only 'purified hTF' / 'hTF'; also called purified hTF; human TF
Procedure: The anti-hTF monoclonal antibodies (No. 1849 and No. 1859) were each immobilized on the surface of a Biacore CM5 chip. The CM5 chip, which had each antibody immobilized thereon, was set in a SPR device, and an antigen-containing buffer containing purified hTF was allowed to flow through its flow path. The dissociation constant between each of the antibodies and hTF was determined by this measurement system. It should be noted that the measurement conditions were as follows.

recombinant hTF = recombinant hTF (human, UniProt P13726 33-251); experiment: cell-based or functional assay

Kd [1] | Prolonged coagulation time ratio (prothrombin time ratio, PBS control = 1) (recombinant hTF) | Binder
189 pM | 1.22 ratio relative to PBS | anti-hTF monoclonal antibody (No. 1859) (antibody, IgG2a, V domains shown, Rat hybridoma IgG purified on Protein G; constant regions are not) VH: EVMLVESGPGLVQPSQTLSLICTVSGFSLTDYSVHWVRQPPGKGLEWVGVMWSGGTTTFNSGLKSRLSISRDTSKSQVFLKMYSLRTEDTAVYYCTRERAGSPLNWFAYWGQGTLVTVSS VL: DIVMTQSPASLSASLEEIVTITCQASQDIGNYLSWYQQKPGKSPHLLIHSSTSLADGVPSRFSGSRSGTQYSLKINRLQVEDTGVYYCLQHYSGSRTFGGGTNLELK
91.4 pM | 5.54 ratio relative to PBS | anti-hTF monoclonal antibody (No. 1849) (antibody, IgG2b, V domains shown, Rat hybridoma IgG purified on Protein G; constant regions are not; also called rat anti-hTF monoclonal antibody (No. 1849)) VH: EVQLVESGGGLVQSGRSLKLSCAASGFTFSDYNMAWIRQAPKKGLEWVAAIIYDGTRTYYRDSVRGRFTISRDNAKSTLYLQVDSLRSEDTATYYCATGDSYTNFAYWGQGTLVTVSS VL: EIVLTQSPTTMAASPGEKVTLTCRASSSLSYMHWYQQRSGTSPKLWIYETSKLASGVPNRFSGSGSGTSFSLTIDSMETEDAATYYCQQGNSYPRTFGGGTKLELK
